The assay has as its target SARS-CoV-2 XBB.1 S2P spike trimer (SARS-CoV-2). As to the kind of experiment: SPR; spike captured through its C-terminal His-tag on a CM5 chip with anti-His antibodies (His Capture Kit); serially diluted human ACE2-Fc flowed over; HBS-EP+ buffer; 25°C; Biacore T200, single-cycle mode; 1:1 binding model. Background: In SPR one partner is held on a chip, and binding of the other changes the refractive index at the surface.

Here are results for one substance from publication PMC9747694.

As a reminder, the Kd is the equilibrium constant for the complex coming apart. Low values mean higher affinity, high ones lower affinity.

Chain of human ACE2-Fc protein (from pcDNA3-sACE2-WT(732)-IgG1) (Q9BYF1 18-732): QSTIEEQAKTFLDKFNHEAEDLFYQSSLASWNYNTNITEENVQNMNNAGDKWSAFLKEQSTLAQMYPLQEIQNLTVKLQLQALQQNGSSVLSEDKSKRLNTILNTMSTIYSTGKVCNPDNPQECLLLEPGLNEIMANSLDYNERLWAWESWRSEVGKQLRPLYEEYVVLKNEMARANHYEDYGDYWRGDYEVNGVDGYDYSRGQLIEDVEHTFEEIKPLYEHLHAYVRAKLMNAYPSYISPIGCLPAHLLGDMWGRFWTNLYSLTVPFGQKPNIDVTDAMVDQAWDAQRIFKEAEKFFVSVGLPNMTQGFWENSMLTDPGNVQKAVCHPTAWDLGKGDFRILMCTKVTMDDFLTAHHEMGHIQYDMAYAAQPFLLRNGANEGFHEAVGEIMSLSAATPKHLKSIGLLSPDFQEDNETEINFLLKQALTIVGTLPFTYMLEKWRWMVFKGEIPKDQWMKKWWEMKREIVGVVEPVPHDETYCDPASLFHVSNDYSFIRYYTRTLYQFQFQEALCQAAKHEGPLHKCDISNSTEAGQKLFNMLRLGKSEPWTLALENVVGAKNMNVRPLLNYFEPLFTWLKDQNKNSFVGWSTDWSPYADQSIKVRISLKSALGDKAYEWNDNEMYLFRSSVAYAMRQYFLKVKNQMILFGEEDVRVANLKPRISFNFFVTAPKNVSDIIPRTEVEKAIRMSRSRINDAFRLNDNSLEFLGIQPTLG

In the case of “human ACE2-Fc protein (from pcDNA3-sACE2-WT(732)-IgG1) (from UniProt Q9BYF1 18-732) (Fc fusion)”, the Kd stood at 2.06 nM.
